Experimental data taken from KR20220012314A (dated 2022).
“And” between values parts separate entries of the source, which are not always exact repeats. Equal values may be shown once.

T1: 인간 골수종 세포주 U266 표면의 인간 BCMA (human, UniProt Q02223 1-184)
T1 construct: whole, on cells; also called U266 세포; FACS 세포 결합
T1 sequence (looked up): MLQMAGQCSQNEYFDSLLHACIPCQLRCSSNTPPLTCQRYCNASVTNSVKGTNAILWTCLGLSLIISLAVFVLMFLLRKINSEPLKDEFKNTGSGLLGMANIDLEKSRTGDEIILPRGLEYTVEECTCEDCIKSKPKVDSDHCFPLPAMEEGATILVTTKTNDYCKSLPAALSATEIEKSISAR

T2: 재조합 인간 BCMA-his 단백질 (Cat#BCA-H522Y, 아크로 바이오시스템즈) (human, UniProt Q02223 1-54, biotin-labelled in the capture ELISA and the benchmark-blocking ELISA)
T2 construct: Bought protein, MW 7.8 kDa as printed; not shown: his tag
T2 sequence: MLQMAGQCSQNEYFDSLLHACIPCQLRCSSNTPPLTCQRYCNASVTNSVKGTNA

B1: 마우스 항-BCMA 단일클론 항체 B1A1 (antibody, V domains shown)
VH: DVQLQESGPGLVKPSQSLSLTCSVTGYSITSAYYWNWIRQFPGNKLEWMGYIRYDGSNNYNPSLKNRISITRDTSKNQFFLKLNSVTAEDTATYYCAPYDYDEVFAYWGQGTLVTVSA
VL: DIVMTQSHKFMSTSVGDRVSITCKASQEVSTAVAWYQQKPGQSPKLLIYWASMRHTGVPDRFTGSGSGTDYTLIITSVQAEDLALYYCQQYYSTPLTFGAGTKLELK
B2: BCMA 벤치마크 (GSK2857916의 BCMA-결합 부분을 함유하는 항체) (antibody, human IgG1, kappa, V domains shown)
VH: QVQLVQSGAEVKKPGSSVKVSCKASGGTFSNYWMHWVRQAPGQGLEWMGATYRGHSDTYYNQKFKGRVTITADKSTSTAYMELSSLRSEDTAVYYCARGAIYDGYDVLDNWGQGTLVTVSS
VL: DIQMTQSPSSLSASVGDRVTITCSASQDISNYLNWYQQKPGKAPKLLIYYTSNLHSGVPSRFSGSGSGTDFTLTISSLQPEDFATYYCQQYRKLPWTFGQGTKLEIKR
notes: also called BM; BCMA-mab1

How the values were obtained:
[1] = target: T1, 인간 골수종 세포주 U266 표면의 인간 BCMA; assay: flow cytometry on U266 cells
[2] = target: T3, 사이노몰거스 원숭이 BCMA-Fc 단백질 (아크로 바이오시스템즈, Cat#BCA-C5253) (cynomolgus monkey, UniProt A0A2K5UD97 1-53); assay: SPR (Biacore T200), antibody captured on chip, cynomolgus BCMA-Fc in flow, 1:1 Langmuir fit
T3 construct: also called 사이노몰거스 BCMA-Fc; 사이노몰거스 BCMA; not shown: Fc tag

[3] = target: T2, 재조합 인간 BCMA-his 단백질 (Cat#BCA-H522Y, 아크로 …); assay: competition ELISA: BM coated, antibody titrated and premixed with biotin-labelled human BCMA-his 0.22 nM; competitor BM
[4] = target: T2, 재조합 인간 BCMA-his 단백질 (Cat#BCA-H522Y, 아크로 …); assay: SPR (Biacore T200), antibody captured on chip, human BCMA-his in flow, 1:1 Langmuir fit
[5] = target: T2, 재조합 인간 BCMA-his 단백질 (Cat#BCA-H522Y, 아크로 …); assay: competition ELISA: BCMA-his coated, antibody titrated, then biotin-labelled human BAFF-Fc 0.25 nM; competitor BAFF-Fc
[6] = target: T2, 재조합 인간 BCMA-his 단백질 (Cat#BCA-H522Y, 아크로 …); assay: capture ELISA: antibody captured on plate, biotin-labelled human BCMA-his 0.28 nM in solution
[7] = target: T2, 재조합 인간 BCMA-his 단백질 (Cat#BCA-H522Y, 아크로 …); assay: competition ELISA: BM coated, antibody titrated and premixed with biotin-labelled human BCMA-his; competitor BM (self)
[8] = target: T2, 재조합 인간 BCMA-his 단백질 (Cat#BCA-H522Y, 아크로 …); assay: competition ELISA: BCMA-his coated, antibody titrated, then biotin-labelled human BAFF-Fc; competitor BAFF-Fc
[9] = target: T2, 재조합 인간 BCMA-his 단백질 (Cat#BCA-H522Y, 아크로 …); assay: capture ELISA with biotin-labelled human BCMA-his
[10] = target: T2, 재조합 인간 BCMA-his 단백질 (Cat#BCA-H522Y, 아크로 …); assay: competition ELISA: BM coated, antibody titrated and premixed with biotin-labelled human BCMA-his 0.22 nM; competitor BM (self)
[11] = target: T3, 사이노몰거스 원숭이 BCMA-Fc 단백질 (아크로 바이오시스템즈, …); assay: SPR (Biacore), cynomolgus BCMA
[12] = target: T2, 재조합 인간 BCMA-his 단백질 (Cat#BCA-H522Y, 아크로 …); assay: SPR (Biacore), human BCMA

T3 sequence (A0A2K5UD97 entry or part of it): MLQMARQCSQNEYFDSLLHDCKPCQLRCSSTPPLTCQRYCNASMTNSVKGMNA

Binder | EC50 [1] | Kd [2] | koff [2] | kon [2] | IC50 [3] | Kd [4] | koff [4] | kon [4] | IC50 [5] | EC50 [6] | IC50 [7] | IC50 [8] | EC50 [9] | IC50 [10] | Kd [11] | Kd [12]
B1 | 2.66 nM | 9.08 nM | 0.0148 s⁻¹ | 1.63e+06 M⁻¹ s⁻¹ | 1.91 nM | 0.636 nM | 0.00161 s⁻¹ | 2.45e+06 M⁻¹ s⁻¹ | 7 nM | 1.06 nM | – | – | – | – | – | –
B2 | – | – | – | – | – | 0.742 nM | 0.000245 s⁻¹ | 330000 M⁻¹ s⁻¹ | 9.61 nM and 10.7 nM | 1.27 nM and 1.11 nM | 2.23 nM and 1.64 nM | 3.64 nM and 3.59 nM | 0.71 nM and 0.93 nM | 1.93 nM and 2.64 nM | 0.599 nM | 0.742 nM
